One molecule from PMC12101485 (Science Advances, 2025) can be followed below.

The experiment addresses purified human BAG3 protein (human, UniProt O95817 1-575). Put plainly: peptide or protein array.

Chain of purified human BAG3 protein (O95817 whole entry): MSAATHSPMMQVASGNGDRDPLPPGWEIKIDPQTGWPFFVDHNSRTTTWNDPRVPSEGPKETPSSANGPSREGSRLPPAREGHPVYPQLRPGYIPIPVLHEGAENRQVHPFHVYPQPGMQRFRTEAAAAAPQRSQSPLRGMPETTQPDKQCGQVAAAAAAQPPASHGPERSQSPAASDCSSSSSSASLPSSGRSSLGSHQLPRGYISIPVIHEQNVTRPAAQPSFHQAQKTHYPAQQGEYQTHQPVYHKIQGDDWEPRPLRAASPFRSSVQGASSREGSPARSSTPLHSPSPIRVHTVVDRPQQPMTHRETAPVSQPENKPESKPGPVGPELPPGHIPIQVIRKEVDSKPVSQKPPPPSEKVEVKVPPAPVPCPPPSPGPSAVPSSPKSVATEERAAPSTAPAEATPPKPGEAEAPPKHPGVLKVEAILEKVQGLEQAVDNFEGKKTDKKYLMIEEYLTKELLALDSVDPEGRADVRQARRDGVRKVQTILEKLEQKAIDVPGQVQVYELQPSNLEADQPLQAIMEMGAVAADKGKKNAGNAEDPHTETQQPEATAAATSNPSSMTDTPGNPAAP

B1: I465-A494 region of human BACE1 (peptide array spots) (peptide, UniProt P56817 465-494, looked up)
peptide: ICALFMLPLCLMVCQWRCLRCLRQQHDDFA
With B1, the binding result is listed as “binds”.
